From the supplement of paper PMC11246515
± gives the standard deviation of the averaged measurements.

Assay: total protein half-life in vivo (active degradation + dilution); higher = more stable protein
[1] = E. coli NCM3722 delta-clpP delta-lon delta-hslV, growth: N-lim chemostat, doubling time 6 h
[2] = E. coli NCM3722 delta-clpP, growth: N-lim chemostat, doubling time 6 h
[3] = E. coli NCM3722 delta-hslV, growth: N-lim chemostat, doubling time 6 h
[4] = E. coli NCM3722 delta-lon, growth: N-lim chemostat, doubling time 6 h
[5] = E. coli NCM3722 delta-smpB, growth: N-lim chemostat, doubling time 6 h
[6] = wild type E. coli NCM3722, growth: C-lim chemostat, doubling time 3 h
[7] = wild type E. coli NCM3722, growth: C-lim chemostat, doubling time 12 h
[8] = wild type E. coli NCM3722, growth: N-lim chemostat, doubling time 6 h
[9] = wild type E. coli NCM3722, growth: N-lim chemostat, doubling time 12 h
[10] = wild type E. coli NCM3722, growth: P-lim chemostat, doubling time 6 h
[11] = wild type E. coli NCM3722, growth: P-lim chemostat, doubling time 12 h
[12] = wild type E. coli NCM3722, growth: C-lim chemostat, doubling time 6 h

Row | Sequence | total protein half-life in vivo [1] [h] | total protein half-life in vivo [2] [h] | total protein half-life in vivo [3] [h] | total protein half-life in vivo [4] [h] | total protein half-life in vivo [5] [h] | total protein half-life in vivo [6] [h] | total protein half-life in vivo [7] [h] | total protein half-life in vivo [8] [h] | total protein half-life in vivo [9] [h] | total protein half-life in vivo [10] [h] | total protein half-life in vivo [11] [h] | total protein half-life in vivo [12] [h]
1 | MTTETRSLYSQLPAIDRLLRDSSFLSLRDTYGHTRVVELLRQMLDEAREVIRGSQTLPAWCENWAQEVDARLTKEAQSALRPVINLTGTVLHTNLGRALQAEAAVEAVAQAMRSPVTLEYDLDDAGRGHRDRALAQLLCRITGAEDACIVNNNAAAVLLMLAATASGKEVVVSRGELVEIGGAFRIPDVMRQAGCTLHEVGTTNRTHANDYRQAVNENTALLMKVHTSNYSIQGFTKAIDEAELVALGKELDVPVVTDLGSGSLVDLSQYGLPKEPMPQELIAAGVSLVSFSGDKLLGGPQAGIIVGKKEMIARLQSHPLKRALRADKMTLAALEATLRLYLHPEALSEKLPTLRLLTRSAEVIQIQAQRLQAPLAAHYGAEFAVQVMPCLSQIGSGSLPVDRLPSAALTFTPHDGRGSHLESLAARWRELPVPVIGRIYDGRLWLDLRCLEDEQRFLEMLLK [P0A821] | 6.33 ± 0.17 | 6.19 ± 0.19 | 5.62 ± 1 | 5.86 ± 0.47 | 5.49 ± 0.32 | 3.16 ± 0.51 | 11.7 ± 0.94 | 5.64 ± 0.39 | 10.6 ± 1 | 6.06 ± 0.4 | 11.9 ± 1.1 | 
2 | MLRLLEEKIATPLGPLWVICDEQFRLRAVEWEEYSERMVQLLDIHYRKEGYERISATNPGGLSDKLREYFAGNLSIIDTLPTATGGTPFQREVWKTLRTIPCGQVMHYGQLAEQLGRPGAARAVGAANGSNPISIVVPCHRVIGRNGTMTGYAGGVQRKEWLLRHEGYLLL [P0AFH0] | 5.81 ± 0.46 | 4.8 ± 0.28 | 6.05 ± 1.3 |  | 3.86 ± 0.21 | 2.61 | 10.4 ± 0.61 | 4.55 ± 0.71 | 7.793 ± 0.026 | 5.07 ± 0.087 | 8.9 ± 0.66 | 5.29 ± 0.24
3 | MIGSLTARIFAIFWLTLALVLMLVLMLPKLDSRQMTELLDSEQRQGLMIEQHVEAELANDPPNDLMWWRRLFRAIDKWAPPGQRLLLVTTEGRVIGAERSEMQIIRNFIGQADNADHPQKKKYGRVELVGPFSVRDGEDNYQLYLIRPASSSQSDFINLLFDRPLLLLIVTMLVSTPLLLWLAWSLAKPARKLKNAADEVAQGNLRQHPELEAGPQEFLAAGASFNQMVTALERMMTSQQRLLSDISHELRTPLTRLQLGTALLRRRSGESKELERIETEAQRLDSMINDLLVMSRNQQKNALVSETIKANQLWSEVLDNAAFEAEQMGKSLTVNFPPGPWPLYGNPNALESALENIVRNALRYSHTKIEVGFAVDKDGITITVDDDGPGVSPEDREQIFRPFYRTDEARDRESGGTGLGLAIVETAIQQHRGWVKAEDSPLGGLRLVIWLPLYKRS [P0AE82] | 6.5 ± 0.57 | 6.88 ± 0.076 |  | 5.674 ± 0.024 | 5.86 ± 0.35 | 2.971 ± 0.0099 | 9.91 ± 1.8 | 6.07 ± 0.074 | 12.8 ± 0.79 | 5.98 ± 0.15 | 11.8 ± 0.38 | 5.92 ± 0.31
4 | MSVIAQAGAKGRQLHKFGGSSLADVKCYLRVAGIMAEYSQPDDMMVVSAAGSTTNQLINWLKLSQTDRLSAHQVQQTLRRYQCDLISGLLPAEEADSLISAFVSDLERLAALLDSGINDAVYAEVVGHGEVWSARLMSAVLNQQGLPAAWLDAREFLRAERAAQPQVDEGLSYPLLQQLLVQHPGKRLVVTGFISRNNAGETVLLGRNGSDYSATQIGALAGVSRVTIWSDVAGVYSADPRKVKDACLLPLLRLDEASELARLAAPVLHARTLQPVSGSEIDLQLRCSYTPDQGSTRIERVLASGTGARIVTSHDDVCLIEFQVPASQDFKLAHKEIDQILKRAQVRPLAVGVHNDRQLLQFCYTSEVADSALKILDEAGLPGELRLRQGLALVAMVGAGVTRNPLHCHRFWQQLKGQPVEFTWQSDDGISLVAVLRTGPTESLIQGLHQSVFRAEKRIGLVLFGKGNIGSRWLELFAREQSTLSARTGFEFVLAGVVDSRRSLLSYDGLDASRALAFFNDEAVEQDEESLFLWMRAHPYDDLVVLDVTASQQLADQYLDFASHGFHVISANKLAGASDSNKYRQIHDAFEKTGRHWLYNATVGAGLPINHTVRDLIDSGDTILSISGIFSGTLSWLFLQFDGSVPFTELVDQAWQQGLTEPDPRDDLSGKDVMRKLVILAREAGYNIEPDQVRVESLVPAHCEGGSIDHFFENGDELNEQMVQRLEAAREMGLVLRYVARFDANGKARVGVEAVREDHPLASLLPCDNVFAIESRWYRDNPLVIRGPGAGRDVTAGAIQSDINRLAQLL | 3.69 ± 0.6 | 2.74 ± 0.12 | 2.95 ± 0.31 | 3.25 ± 0.14 | 3.01 ± 0.38 | 3.08 ± 0.22 | 9.3 ± 0.67 | 2.79 ± 0.053 | 4.57 ± 0.19 | 6 ± 0.21 | 11.1 ± 0.36 | 4.89 ± 0.2
5 | MNLSLRRSTSALLASSLLLTIGRGATLPFMTIYLSRQYSLSVDLIGYAMTIALTIGVVFSLGFGILADKFDKKRYMLLAITAFASGFIAITLVNNVTLVVLFFALINCAYSVFATVLKAWFADNLSSTSKTKIFSINYTMLNIGWTIGPPLGTLLVMQSINLPFWLAAICSAFPMLFIQIWVKRSEKIIATETGSVWSPKVLLQDKALLWFTCSGFLASFVSGAFASCISQYVMVIADGDFAEKVVAVVLPVNAAMVVTLQYSVGRRLNPANIRALMTAGTLCFVIGLVGFIFSGNSLLLWGMSAAVFTVGEIIYAPGEYMLIDHIAPPEMKASYFSAQSLGWLGAAINPLVSGVVLTSLPPSSLFVILALVIIAAWVLMLKGIRARPWGQPALC |  |  |  |  |  | 1.77 |  |  |  |  |  | 
6 | MNKSMLAGIGIGVAAALGVAAVASLNVFERGPQYAQVVSATPIKETVKTPRQECRNVTVTHRRPVQDENRITGSVLGAVAGGVIGHQFGGGRGKDVATVVGALGGGYAGNQIQGSLQESDTYTTTQQRCKTVYDKSEKMLGYDVTYKIGDQQGKIRMDRDPGTQIPLDSNGQLILNNKV [P0AB35] | 0.776 ± 0.14 | 0.716 |  |  | 0.623 | 0.834 |  | 0.945 |  | 0.416 | 1.21 | 
7 | MGQSSQPHELGGGLKSRHVTMLSIAGVIGASLFVGSSVAIAEAGPAVLLAYLFAGLLVVMIMRMLAEMAVATPDTGSFSTYADKAIGRWAGYTIGWLYWWFWVLVIPLEANIAAMILHSWVPGIPIWLFSLVITLALTGSNLLSVKNYGEFEFWLALCKVIAILAFIFLGAVAISGFYPYAEVSGISRLWDSGGFMPNGFGAVLSAMLITMFSFMGAEIVTIAAAESDTPEKHIVRATNSVIWRISIFYLCSIFVVVALIPWNMPGLKAVGSYRSVLELLNIPHAKLIMDCVILLSVTSCLNSALYTASRMLYSLSRRGDAPAVMGKINRSKTPYVAVLLSTGAAFLTVVVNYYAPAKVFKFLIDSSGAIALLVYLVIAVSQLRMRKILRAEGSEIRLRMWLYPWLTWLVIGFITFVLVVMLFRPAQQLEVISTGLLAIGIICTVPIMARWKKLVLWQKTPVHNTR |  |  | 0.975 |  | 1.1 |  |  |  |  |  |  | 
8 | MKIVEVKHPLVKHKLGLMREQDISTKRFRELASEVGSLLTYEATADLETEKVTIEGWNGPVEIDQIKGKKITVVPILRAGLGMMDGVLENVPSARISVVGMYRNEETLEPVPYFQKLVSNIDERMALIVDPMLATGGSVIATIDLLKKAGCSSIKVLVLVAAPEGIAALEKAHPDVELYTASIDQGLNEHGYIIPGLGDAGDKIFGTK [P0A8F0] | 5.6625 ± 0.0038 | 5.17 ± 0.33 | 5.83 ± 0.94 | 5.36 ± 0.61 | 5.3 ± 0.15 | 3.05 ± 0.29 | 10.9 ± 1.4 | 5.71 ± 0.23 | 12.1 ± 2.8 | 6.55 ± 0.34 | 11.3 ± 0.98 | 5.86 ± 0.36
9 | MILIIYAHPYPHHSHANKRMLEQARTLEGVEIRSLYQLYPDFNIDIAAEQEALSRADLIVWQHPMQWYSIPPLLKLWIDKVFSHGWAYGHGGTALHGKHLLWAVTTGGGESHFEIGAHPGFDVLSQPLQATAIYCGLNWLPPFAMHCTFICDDETLEGQARHYKQRLLEWQEAHHG [P0A754] |  | 6.16 | 5.27 | 6.37 | 6.82 |  | 10.9 ± 0.14 |  | 10.5 ± 2.2 | 6.43 ± 0.21 | 10.3 ± 1.5 | 4.93
10 | MELLVLVWRQYRWPFISVMALSLASAALGIGLIAFINQRLIETADTSLLVLPEFLGLLLLLMAVTLGSQLALTTLGHHFVYRLRSEFIKRILDTHVERIEQLGSASLLAGLTSDVRNITIAFVRLPELVQGIILTIGSAAYLWMLSGKMLLVTAIWMAITIWGGFVLVARVYKHMATLRETEDKLYTDFQTVLEGRKELTLNRERAEYVFNNLYIPDAQEYRHHIIRADTFHLSAVNWSNIMMLGAIGLVFWMANSLGWADTNVAATYSLTLLFLRTPLLSAVGALPTLLTAQVAFNKLNKFALAPFKAEFPRPQAFPNWQTLELRNVTFAYQDNAFSVGPINLTIKRGELLFLIGGNGSGKSTLAMLLTGLYQPQSGEILLDGKPVSGEQPEDYRKLFSAVFTDVWLFDQLLGPEGKPANPQLVEKWLAQLKMAHKLELSNGRIVNLKLSKGQKKRVALLLALAEERDIILLDEWAADQDPHFRREFYQVLLPLMQEMGKTIFAISHDDHYFIHADRLLEMRNGQLSELTGEERDAASRDAVARTA |  | 5.55 ± 0.68 | 2.75 |  | 3.49 ± 2.1 | 3.11 ± 0.83 | 8.87 | 3.39 | 6.04 |  | 6.15 | 
11 | MIRNVLLAFMICSGMTLLGGCSSVMSHTGGKEGTYPGTRASATMIGDDETNWGTKSLAILDMPFTAVMDTLLLPWDVFRKDSSVRSRVEKSEANAQATNAVIPPARMPDN [P0ADM4] | 5.58 ± 0.24 | 6 ± 0.66 | 5.46 ± 0.49 | 5.9 ± 0.34 | 4.43 ± 0.12 | 2.6 ± 0.12 | 8.87 ± 1.3 | 5.84 ± 0.094 | 11 ± 1.4 | 4.8 ± 0.24 | 11.1 ± 0.31 | 4.71 ± 0.37
12 | MSSMTTTDNKAFLNELARLVGSSHLLTDPAKTARYRKGFRSGQGDALAVVFPGSLLELWRVLKACVTADKIILMQAANTGLTEGSTPNGNDYDRDVVIISTLRLDKLHVLGKGEQVLAYPGTTLYSLEKALKPLGREPHSVIGSSCIGASVIGGICNNSGGSLVQRGPAYTEMSLFARINEDGKLTLVNHLGIDLGETPEQILSKLDDDRIKDDDVRHDGRHAHDYDYVHRVRDIEADTPARYNADPDRLFESSGCAGKLAVFAVRLDTFEAEKNQQVFYIGTNQPEVLTEIRRHILANFENLPVAGEYMHRDIYDIAEKYGKDTFLMIDKLGTDKMPFFFNLKGRTDAMLEKVKFFRPHFTDRAMQKFGHLFPSHLPPRMKNWRDKYEHHLLLKMAGDGVGEAKSWLVDYFKQAEGDFFVCTPEEGSKAFLHRFAAAGAAIRYQAVHSDEVEDILALDIALRRNDTEWYEHLPPEIDSQLVHKLYYGHFMCYVFHQDYIVKKGVDVHALKEQMLELLQQRGAQYPAEHNVGHLYKAPETLQKFYRENDPTNSMNPGIGKTSKRKNWQEVE | 6.43 ± 0.27 | 6.81 ± 1 | 5.82 ± 0.25 | 5.72 ± 0.37 | 5.06 ± 0.94 | 1.97 ± 0.11 | 10 ± 0.23 | 5.98 ± 0.4 | 10.2 ± 0.66 | 4.92 ± 0.78 | 9.79 ± 1.1 | 4.28 ± 0.33
13 | MQARVKWVEGLTFLGESASGHQILMDGNSGDKAPSPMEMVLMAAGGCSAIDVVSILQKGRQDVVDCEVKLTSERREEAPRLFTHINLHFIVTGRDLKDAAVARAVDLSAEKYCSVALMLEKAVNITHSYEVVAA [P0ADX1] | 5.2 ± 0.18 | 5.55 ± 1.8 | 4.69 ± 0.32 | 5.8 ± 1.1 | 5.32 ± 0.37 | > 4 | 10.8 ± 3.3 | 4.88 ± 0.78 | 8.73 ± 0.8 | 5.45 ± 0.51 |  | 6.49 ± 0.41
